From paper PMC4385930

Experiments:
Test in all cases: ITC
[1] = target: Bak BH3 BH3 (Homo sapiens), Q16611
[2] = target: Bid BH3 BH3 (Homo sapiens), P55957
[3] = target: Bax BH3 BH3 (Homo sapiens), Q07812

B1: F1L ΔN38ΔC36, P24356 (protein)
chain: YPLPENMVYRFDKSTNILDYLSTERDHVMMAVRYYMSKQRLDDLYRQLPTKTRSYIDIINIYCDKVSNDYNRDMNIMYDMASTKSFTVYDINNEVNTILMDNKGLGVRLATISFITELGRRCMNPVETIKMFTLLSHTICDDYFVDYITDIS
In the case of B1, the Kd [1] is reported as 2640 nM, the Kd [2] is reported as 3220 nM and the Kd [3] is reported as 920 nM.
